The values below are quoted from earlier work in publication PMC6325607.

As usually defined, the pKa is the pH at which an ionisable group is half protonated.

This data set has as its system Cys149.

As for “Cytosolic glyceraldehyde-3-phosphate dehydrogenase (GAPDH) (Arabidopsis thaliana)”, the pKa is 5.65.
